Laboratory results reported in article PMC3547832, “Secondary Metabolism and Development Is Mediated by LlmF Control of VeA Subcellular Localization in Aspergillus nidulans” (PLoS Genetics, 2013).

Legend:
[1] = target: LaeA (Aspergillus nidulans, UniProt C8VQG9); details: labelled compound; room temperature, UV on ice 30 min; GST-LaeA
[2] = target: T1, His6-VeA-S-tag (recombinant) (Aspergillus nidulans, UniProt C8VTV4 1-573); assay: pull-down; 10 µg purified GST tagged protein, glutathione sepharose and purified His6-VeA-S-tag, 3 hours at 4°C in PBS buffer with 1 mM DTT, pH 7.3; anti-S-tag immunoblot; details: both partners purified
T1 construct: VeA, Aspergillus nidulans; E. coli codon-optimized version obtained from Reinhard Fischer, EcoRI-XhoI fragment in pRSF-1b; source: E. coli BL21 (λDE3), purified (Ni-NTA); not shown: His6, N-terminal, kept; S-tag, C-terminal, kept
T1 sequence (looked up): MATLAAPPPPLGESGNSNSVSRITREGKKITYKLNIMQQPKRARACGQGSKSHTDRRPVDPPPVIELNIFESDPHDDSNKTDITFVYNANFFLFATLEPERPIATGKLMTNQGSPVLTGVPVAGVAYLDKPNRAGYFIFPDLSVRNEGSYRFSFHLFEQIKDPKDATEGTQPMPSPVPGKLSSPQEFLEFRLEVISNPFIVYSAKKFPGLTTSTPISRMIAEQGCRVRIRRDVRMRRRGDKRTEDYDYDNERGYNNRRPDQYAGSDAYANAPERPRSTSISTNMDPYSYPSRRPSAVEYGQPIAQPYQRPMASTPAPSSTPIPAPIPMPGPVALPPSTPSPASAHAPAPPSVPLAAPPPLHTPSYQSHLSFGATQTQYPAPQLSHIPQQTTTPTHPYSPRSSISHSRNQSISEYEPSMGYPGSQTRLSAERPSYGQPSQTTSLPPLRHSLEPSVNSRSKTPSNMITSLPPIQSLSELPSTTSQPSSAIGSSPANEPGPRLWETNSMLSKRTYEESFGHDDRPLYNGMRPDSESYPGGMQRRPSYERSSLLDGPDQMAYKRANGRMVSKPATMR

C[S+](CC[C@H](N)C(=O)O)C[C@H]1O[C@@H](n2cnc3c(N)ncnc32)[C@H](O)[C@@H]1O (stereo partly drawn) [S-adenosyl methionine] was tested, and the “UV crosslinking of 3H-SAM, SDS-PAGE and tritium phosphor screen” value [1] was “these results indicate that both LaeA and LlmF have the ability to bind SAM”.

B1: GST-LaeA (recombinant) (natural protein, Aspergillus nidulans, UniProt C8VQG9 1-374, looked up)
chain: MFEMGPVGTRLPAMTSPAHNHYSYHSPTSSDRGRSRQNSDAMDIQSITEREPATRYAVAGGPAPWNRNGSPSMSPMYSNNSERNQFHEENGRTYHGFRRGMYFLPCDEQEQDRLDIFHKLFTVARVSESLIYAPHPTNGRFLDLGCGTGIWAIEVANKYPDAFVAGVDLAPIQPPNHPKNCEFYAPFDFEAPWAMGEDSWDLIHLQMGCGSVMGWPNLYRRIFAHLRPGAWFEQVEIDFEPRCDDRSLDGTALRHWYDCLKQATAETMRPIAHSSRDTIKDLQDAGFTEIDHQIVGLPLNPWHQDEHERKVARWYNLAVSESIENLSLAPFSRVYRWPLERIQQLAADVKSEAFNKEIHAYNILHIYQARKPLR
notes: LaeA, Aspergillus nidulans, locus AN0807; GST fusion in pGEX; source: E. coli BL21 (λDE3), purified (glutathione sepharose 6B)
B1: binds [2].

B2: GST-VelB (recombinant) (natural protein, Aspergillus nidulans, UniProt C8VTS4 1-369, looked up)
chain: MYAVEDRAHSGHHPPPLSMDRIPPPSTMYPSSAGPSAMVSPAGQPEPESLSTVHDGRIWSLQVVQQPIRARMCGFGDKDRRPITPPPCIRLIVKDAQTQKEVDINSLDSSFYVVMADLWNADGTHEVNLVKHSATSPSISTAMSSSYPPPPHPTSSDYPASYQTNPYGQPVGQPVGQPVGYAGVGNYYGGSTQLQYQNAYPNPQAQYYQPMYGGMAQPQMPAAQPVTPGPGGMFTRNLIGCLSASAYRLYDTEDKIGVWFVLQDLSVRTEGIFRLKFSFVNVGKSVSDLPQSDIAEVINKGTAPILASTFSEPFQVFSAKKFPGVIESTPLSKVFANQGIKIPIRKDGVKGQGSRGRHSDEDDGLDNEY
notes: VelB, Aspergillus nidulans; GST fusion in pGEX; source: E. coli BL21 (λDE3), purified (glutathione sepharose 6B)
B2: binds [2].
